# Results from patent US7754689B2, “Finger-1 peptide analogs of the TGF-β superfamily” (Wyeth LLC, priority 2006, dated 2010).
# “And” between values parts separate entries of the source, which are not always exact repeats. Identical values can stand only once.
# B1: BMP-12: Bone Morphogenic Protein, member of the TGF-β superfamily; tested in solution and immobilized on Sepharose beads as affinity ligand (protein)
# chain: TALAGTRTAQGSGGGAGRGHGRRGRSRCSRKPLHVDFKELGWDDWIIAPLDYEAYHCEGLCDFPLRSHLEPTNHAIIQTLLNSMAPDAAPASCCVPARLSPISILYIDAANNVVYKQYEDMVVEACGCR
# Experiment: BMP solubility screen: A320 turbidity of BMP-12 solutions
# Format: physicochemical
# Conditions: 50 mM Tris pH 8, 0.5 mg/mL BMP-12
# Method: BMP Solubility Screen—A Tecan liquid-handling robot was used to mix a master plate of reagents, 800 μL×1.25 concentration (for each solution; see Tables 2 and 3), each in 50 mM Tris buffer at pH 8. An eight-channel pipettor was used to transfer 80 μL of material from the master plate into a half-area UV microplate, from which A320 was read from each sample to define a blank. A repeat-pipettor was used to add 20 μL of 2.5 mg/mL BMP-12 in 0.1% TFA to make a 0.5 mg/mL solution, which was then agitated at 14000 rpm. The UV absorption (A320) was read and the blank absorption subtracted to determine solubility. The procedure was repeated with a wider range of 2-methyl-2,4-pentanediol (MPD) concentrations and a finer set of salt concentrations (Table 4).
molecule,measurement,setting,value
B1,A320 minus blank (turbidity),"NaCl 0.5 M, 1-propanol 25%",−0.001
same,A320 minus blank (turbidity),"NaCl 0.5 M, 2-methyl-2,4-pentanediol 2.5%",2.045
same,A320 minus blank (turbidity),"NaCl 0.5 M, 2-methyl-2,4-pentanediol 5%",2.414
same,A320 minus blank (turbidity),"NaCl 0.5 M, 2-methyl-2,4-pentanediol 10%",2.258
same,A320 minus blank (turbidity),"NaCl 0.5 M, 2-methyl-2,4-pentanediol 15%",1.420
same,A320 minus blank (turbidity),"NaCl 0.5 M, 2-methyl-2,4-pentanediol 20%",0.165
same,A320 minus blank (turbidity),"NaCl 0.5 M, 2-methyl-2,4-pentanediol 25%",0.020 and 0.038
same,A320 minus blank (turbidity),"NaCl 0.50 M, 2-methyl-2,4-pentanediol 30%",−0.091
same,A320 minus blank (turbidity),"NaCl 0.50 M, 2-methyl-2,4-pentanediol 35%",0.026
same,A320 minus blank (turbidity),"NaCl 0.50 M, 2-methyl-2,4-pentanediol 40%",0.024
same,A320 minus blank (turbidity),"NaCl 0.50 M, 2-methyl-2,4-pentanediol 45%",−0.008
same,A320 minus blank (turbidity),"NaCl 0.75 M, 1-propanol 0%",1.911
same,A320 minus blank (turbidity),"NaCl 0.75 M, 1-propanol 2.5%",2.023
same,A320 minus blank (turbidity),"NaCl 0.75 M, 1-propanol 5%",1.541
same,A320 minus blank (turbidity),"NaCl 0.75 M, 1-propanol 10%",1.032
same,A320 minus blank (turbidity),"NaCl 0.75 M, 1-propanol 15%",0.094
same,A320 minus blank (turbidity),"NaCl 0.75 M, 1-propanol 25%",−0.003
same,A320 minus blank (turbidity),"NaCl 0.75 M, 2-methyl-2,4-pentanediol 2.5%",1.985
same,A320 minus blank (turbidity),"NaCl 0.75 M, 2-methyl-2,4-pentanediol 5%",2.076
same,A320 minus blank (turbidity),"NaCl 0.75 M, 2-methyl-2,4-pentanediol 10%",2.211
same,A320 minus blank (turbidity),"NaCl 0.75 M, 2-methyl-2,4-pentanediol 15%",0.818
same,A320 minus blank (turbidity),"NaCl 0.75 M, 2-methyl-2,4-pentanediol 20%",0.099
same,A320 minus blank (turbidity),"NaCl 0.75 M, 2-methyl-2,4-pentanediol 25%",0.001
same,A320 minus blank (turbidity),"NaCl 1 M, 1-propanol 0%",1.988
same,A320 minus blank (turbidity),"NaCl 1 M, 1-propanol 2.5%",1.601
same,A320 minus blank (turbidity),"NaCl 1 M, 1-propanol 5%",1.817
same,A320 minus blank (turbidity),"NaCl 1 M, 1-propanol 10%",1.000
same,A320 minus blank (turbidity),"NaCl 1 M, 1-propanol 15%",0.040
same,A320 minus blank (turbidity),"NaCl 1 M, 1-propanol 25%",−0.010
same,A320 minus blank (turbidity),"NaCl 1 M, 2-methyl-2,4-pentanediol 2.5%",2.133
same,A320 minus blank (turbidity),"NaCl 1 M, 2-methyl-2,4-pentanediol 5%",1.903
same,A320 minus blank (turbidity),"NaCl 1 M, 2-methyl-2,4-pentanediol 10%",2.110
same,A320 minus blank (turbidity),"NaCl 1 M, 2-methyl-2,4-pentanediol 15%",0.400
same,A320 minus blank (turbidity),"NaCl 1 M, 2-methyl-2,4-pentanediol 20%",0.089
same,A320 minus blank (turbidity),"NaCl 1 M, 2-methyl-2,4-pentanediol 25%",−0.015
same,A320 minus blank (turbidity),"NaCl 1.25 M, 1-propanol 0%",1.702
same,A320 minus blank (turbidity),"NaCl 1.25 M, 1-propanol 2.5%",1.376
same,A320 minus blank (turbidity),"NaCl 1.25 M, 1-propanol 5%",1.643
same,A320 minus blank (turbidity),"NaCl 1.25 M, 1-propanol 10%",1.018
same,A320 minus blank (turbidity),"NaCl 1.25 M, 1-propanol 15%",0.033
same,A320 minus blank (turbidity),"NaCl 1.25 M, 1-propanol 25%",0.022
same,A320 minus blank (turbidity),"NaCl 1.25 M, 2-methyl-2,4-pentanediol 2.5%",1.819
same,A320 minus blank (turbidity),"NaCl 1.25 M, 2-methyl-2,4-pentanediol 5%",1.643
same,A320 minus blank (turbidity),"NaCl 1.25 M, 2-methyl-2,4-pentanediol 10%",1.688
same,A320 minus blank (turbidity),"NaCl 1.25 M, 2-methyl-2,4-pentanediol 15%",0.257
same,A320 minus blank (turbidity),"NaCl 1.25 M, 2-methyl-2,4-pentanediol 20%",0.040
same,A320 minus blank (turbidity),"NaCl 1.25 M, 2-methyl-2,4-pentanediol 25%",−0.011
same,A320 minus blank (turbidity),"NaCl 1.5 M, 1-propanol 0%",1.981
same,A320 minus blank (turbidity),"NaCl 1.5 M, 1-propanol 2.5%",1.358
same,A320 minus blank (turbidity),"NaCl 1.5 M, 1-propanol 5%",1.598
same,A320 minus blank (turbidity),"NaCl 1.5 M, 1-propanol 10%",0.973
same,A320 minus blank (turbidity),"NaCl 1.5 M, 1-propanol 15%",0.036
same,A320 minus blank (turbidity),"NaCl 1.5 M, 1-propanol 25%",0.478
same,A320 minus blank (turbidity),"NaCl 1.5 M, 2-methyl-2,4-pentanediol 2.5%",1.767
same,A320 minus blank (turbidity),"NaCl 1.5 M, 2-methyl-2,4-pentanediol 5%",1.521
same,A320 minus blank (turbidity),"NaCl 1.5 M, 2-methyl-2,4-pentanediol 10%",1.798
same,A320 minus blank (turbidity),"NaCl 1.5 M, 2-methyl-2,4-pentanediol 15%",0.227
same,A320 minus blank (turbidity),"NaCl 1.5 M, 2-methyl-2,4-pentanediol 20%",0.045
same,A320 minus blank (turbidity),"NaCl 1.5 M, 2-methyl-2,4-pentanediol 25%",0.003
